Biological target: T1, human Fibrin (human fibrinogen clotted on the plate with thrombin and CaCl2) (human, UniProt P02671 36-629; P02675 45-491; P02679 27-437)
T1 construct: Made in the ELISA wells from the human fibrinogen by thrombin and CaCl2, 1 hour at 37 C, then dried
T1 sequence (looked up) 1: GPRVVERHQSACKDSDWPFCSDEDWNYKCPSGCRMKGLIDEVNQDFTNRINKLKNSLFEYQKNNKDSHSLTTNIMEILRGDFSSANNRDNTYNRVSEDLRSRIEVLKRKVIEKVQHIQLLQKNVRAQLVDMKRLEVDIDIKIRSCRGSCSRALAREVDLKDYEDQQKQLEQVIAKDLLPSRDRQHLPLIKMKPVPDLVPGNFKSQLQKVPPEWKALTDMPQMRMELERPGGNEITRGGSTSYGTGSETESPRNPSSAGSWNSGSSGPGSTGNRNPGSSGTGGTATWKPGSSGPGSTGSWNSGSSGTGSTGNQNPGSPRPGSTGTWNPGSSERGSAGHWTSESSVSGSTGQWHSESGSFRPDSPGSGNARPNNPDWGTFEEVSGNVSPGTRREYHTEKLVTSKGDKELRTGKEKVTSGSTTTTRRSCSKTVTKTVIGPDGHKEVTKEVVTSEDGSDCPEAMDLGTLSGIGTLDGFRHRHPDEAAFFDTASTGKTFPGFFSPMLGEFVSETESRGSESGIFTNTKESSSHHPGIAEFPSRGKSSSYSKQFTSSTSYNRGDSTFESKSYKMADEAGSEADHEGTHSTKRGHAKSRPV
T1 sequence (looked up) 2: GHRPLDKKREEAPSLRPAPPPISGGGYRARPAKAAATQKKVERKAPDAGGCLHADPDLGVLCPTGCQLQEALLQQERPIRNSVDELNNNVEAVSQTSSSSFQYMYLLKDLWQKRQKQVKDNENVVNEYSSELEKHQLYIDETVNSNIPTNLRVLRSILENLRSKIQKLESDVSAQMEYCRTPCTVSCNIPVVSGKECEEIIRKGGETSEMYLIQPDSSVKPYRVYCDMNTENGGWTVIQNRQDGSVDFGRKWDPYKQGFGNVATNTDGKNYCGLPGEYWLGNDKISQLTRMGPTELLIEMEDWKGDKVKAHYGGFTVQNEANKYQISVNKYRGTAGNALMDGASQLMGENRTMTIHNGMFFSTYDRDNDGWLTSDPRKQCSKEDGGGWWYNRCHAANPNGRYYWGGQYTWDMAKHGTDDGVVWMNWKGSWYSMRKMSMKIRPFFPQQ
T1 sequence (looked up) 3: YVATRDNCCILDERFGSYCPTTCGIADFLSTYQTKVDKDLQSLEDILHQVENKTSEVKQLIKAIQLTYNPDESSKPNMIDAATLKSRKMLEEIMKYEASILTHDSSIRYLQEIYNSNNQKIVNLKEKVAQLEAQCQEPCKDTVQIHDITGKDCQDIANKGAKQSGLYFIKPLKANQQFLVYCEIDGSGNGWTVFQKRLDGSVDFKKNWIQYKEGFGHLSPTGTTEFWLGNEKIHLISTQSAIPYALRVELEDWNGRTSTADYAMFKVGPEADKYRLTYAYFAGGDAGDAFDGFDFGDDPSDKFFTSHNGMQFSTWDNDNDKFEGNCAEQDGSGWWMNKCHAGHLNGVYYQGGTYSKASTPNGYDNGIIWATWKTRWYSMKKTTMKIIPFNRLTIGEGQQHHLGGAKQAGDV
Assay: ELISA on plate-coated human fibrin (fibrinogen clotted in the well with thrombin/CaCl2), antibody titrated, A450
Method: The humanized antibodies affinity for fibrinogen, fibrin and P2 peptide were assessed by Enzyme-linked immunosorbent assays (ELISA)s (FIGS. 7-16). ELISAs for fibrinogen binding were performed using plasminogen-depleted human Fibrinogen (EMD/Calbiochem). […] IgG1-depleted Fibrinogen (FGN) in 20 mM HEPES/Saline buffer was added to each well of half of a 96-well Nunc Maxisorp™ ELISA plate. The ELISAs for fibrin binding were prepared by adding 50 mL of 20 mM HEPES/Saline buffer containing 14 mM CaCl₂, and 2 units thrombin to each well of the second half of the Nunc Maxisorp™ ELISA plate. 50 mL of 20 mg fibrinogen in 20 mM HEPES/Saline buffer were then added to a total volume of 100 mL. Plates were placed in a 37° C. incubator for 1 hour to allow fibrinogen to clot into fibrin and subsequently placed overnight into a plate dryer at 37° C. overnight. The ELISAs for P2 peptide were prepared by addition of […] of 30 mM P2 peptide in 20 mM HEPES/Saline buffer to each well of a 96-well Nunc Maxisorp™ ELISA plate. Plates were transferred to the plate dryer and dried overnight at 37° C. All ELISAs were preformed using Nunc MaxiSorp 96-well ELISA plates. Blocking was performed using 100 mL 5% BSA in DPBS are incubated at RT for 1 hour. Plates were washed 5× in DPBS containing 0.05% Tween-20 (EL406 was used for the addition of wash buffer only). […]

EC50 (read off the curve): ~0.3 µM
B1: humanized VH4/Vκ1 antibody (antibody, IgG1, V domains shown)
VH: QVQLVQSGAEVKKPGSSVKVSCKASGYTFTSYWIHWVRQAPGQGLEWIGLIDPSDSYTNYNQKFRGRVTITVDTSTSTAYMELSSLRSEDTAVYYCASSDPTGCWGQGTTVTVSS
VL: DIVMTQAAFSNPITPGTPASISCRSSKSLLHSSGITYLSWYLQKPGQSPQLLIYQMSNLASGVPDRFSSSGSGTDFTLRISRVEAEDVGVYYCAQNLELPLTFGQGTKLEIK
notes: Expressed as IgG1; also called VH4/VK1; VH4Vk1

Reference: patent publication US20240279357A1 (THERINI BIO, published 2024)
